From patent US20250163140A1 (Kyowa Kirin, published 2025)
Positions count from the first letter of the chain named. Names may count otherwise.

B1: antibody D105E (antibody, human IgG1, V domains shown)
VH: QVQLVQSGAEVKKPGASVKVSCKASGYTFTNHYMHWVRQAPGQGLEWMGIINPISGSTSNAQKFQGRVTMTRDTSTSTVYMELSSLRSEDTAVYYCARDIVDAFEFWGQGTMVTVSS
VL: AIQLTQSPSSLSASVGDRVTITCRASQGISSALVWYQQKPGKAPKLLIYDASSLESGVPSRFSGSGSGTDFTLTISSLQPEDFATYYCQQFNDYFTFGPGTKVDIK
notes: also called modified antibody D105
B2: antibody D105F (antibody, human IgG1, V domains shown)
VH: B1 VH with E105F
VL: B1 VL
notes: as for B1
B3: antibody D105G (antibody, human IgG1, V domains shown)
VH: B1 VH with E105G
VL: B1 VL
notes: as for B1
B4: antibody D105H (antibody, human IgG1, V domains shown)
VH: B1 VH with E105H
VL: B1 VL
notes: as for B1
B5: antibody D105I (antibody, human IgG1, V domains shown)
VH: B1 VH with E105I
VL: B1 VL
notes: as for B1
B6: antibody D105K (antibody, human IgG1, V domains shown)
VH: B1 VH with E105K
VL: B1 VL
notes: as for B1
B7: antibody D105L (antibody, human IgG1, V domains shown)
VH: B1 VH with E105L
VL: B1 VL
notes: as for B1
B8: antibody D105M (antibody, human IgG1, V domains shown)
VH: B1 VH with E105M
VL: B1 VL
notes: as for B1
B9: antibody D105N (antibody, human IgG1, V domains shown)
VH: B1 VH with E105N
VL: B1 VL
notes: as for B1
B10: antibody D105P (antibody, human IgG1, V domains shown)
VH: B1 VH with E105P
VL: B1 VL
notes: as for B1
B11: antibody D105Q (antibody, human IgG1, V domains shown)
VH: B1 VH with E105Q
VL: B1 VL
notes: as for B1
B12: antibody D105R (antibody, human IgG1, V domains shown)
VH: B1 VH with E105R
VL: B1 VL
notes: as for B1
B13: antibody D105S (antibody, human IgG1, V domains shown)
VH: B1 VH with E105S
VL: B1 VL
notes: as for B1
B14: antibody D105V (antibody, human IgG1, V domains shown)
VH: B1 VH with E105V
VL: B1 VL
notes: as for B1
B15: antibody D105W (antibody, human IgG1, V domains shown)
VH: B1 VH with E105W
VL: B1 VL
notes: as for B1
B16: antibody D105Y (antibody, human IgG1, V domains shown)
VH: B1 VH with E105Y
VL: B1 VL
notes: as for B1
B17: antibody A_A (antibody, human IgG1, name in EU numbering)
heavy: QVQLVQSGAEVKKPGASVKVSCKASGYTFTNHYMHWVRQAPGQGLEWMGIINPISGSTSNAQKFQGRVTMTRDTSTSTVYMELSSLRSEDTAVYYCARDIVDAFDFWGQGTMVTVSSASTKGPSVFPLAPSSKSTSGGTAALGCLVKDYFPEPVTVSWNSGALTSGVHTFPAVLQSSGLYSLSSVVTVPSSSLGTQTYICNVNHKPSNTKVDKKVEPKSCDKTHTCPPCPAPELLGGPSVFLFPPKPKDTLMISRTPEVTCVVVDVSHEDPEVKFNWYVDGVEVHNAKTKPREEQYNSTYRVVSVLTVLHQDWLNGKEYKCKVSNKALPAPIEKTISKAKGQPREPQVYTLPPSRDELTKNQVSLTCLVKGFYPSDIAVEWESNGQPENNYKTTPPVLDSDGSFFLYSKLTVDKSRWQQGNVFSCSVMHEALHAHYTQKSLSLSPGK
light: B1 VL
notes: not shown: human kappa chain constant region; copies: 2 + 2
B18: antibody A_P (antibody, human IgG1, name in EU numbering)
heavy: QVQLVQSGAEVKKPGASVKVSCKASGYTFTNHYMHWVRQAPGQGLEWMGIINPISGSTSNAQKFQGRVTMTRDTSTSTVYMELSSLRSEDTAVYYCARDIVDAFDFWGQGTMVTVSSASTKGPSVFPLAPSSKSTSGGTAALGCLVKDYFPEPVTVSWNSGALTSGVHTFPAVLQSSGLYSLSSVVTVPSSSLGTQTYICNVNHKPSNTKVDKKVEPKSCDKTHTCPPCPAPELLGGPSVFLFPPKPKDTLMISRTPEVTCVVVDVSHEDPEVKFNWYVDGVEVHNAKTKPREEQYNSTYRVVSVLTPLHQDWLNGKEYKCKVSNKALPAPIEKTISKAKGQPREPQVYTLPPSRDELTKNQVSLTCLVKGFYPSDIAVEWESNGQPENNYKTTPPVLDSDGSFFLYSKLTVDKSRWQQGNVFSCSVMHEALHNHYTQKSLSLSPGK
light: B1 VL
notes: positions are EU index; not shown: human kappa chain constant region; copies: 2 + 2
B19: antibody A_YTE (antibody, IgG1)
heavy: QVQLVQSGAEVKKPGASVKVSCKASGYTFTNHYMHWVRQAPGQGLEWMGIINPISGSTSNAQKFQGRVTMTRDTSTSTVYMELSSLRSEDTAVYYCARDIVDAFDFWGQGTMVTVSSASTKGPSVFPLAPSSKSTSGGTAALGCLVKDYFPEPVTVSWNSGALTSGVHTFPAVLQSSGLYSLSSVVTVPSSSLGTQTYICNVNHKPSNTKVDKKVEPKSCDKTHTCPPCPAPELLGGPSVFLFPPKPKDTLYITREPEVTCVVVDVSHEDPEVKFNWYVDGVEVHNAKTKPREEQYNSTYRVVSVLTVLHQDWLNGKEYKCKVSNKALPAPIEKTISKAKGQPREPQVYTLPPSRDELTKNQVSLTCLVKGFYPSDIAVEWESNGQPENNYKTTPPVLDSDGSFFLYSKLTVDKSRWQQGNVFSCSVMHEALHNHYTQKSLSLSPGK
light: B1 VL
notes: IgG1 CH with M252Y/S254T/T256E (EU index); not shown: human kappa chain constant region; copies: 2 + 2
B20: antibody A_G2 (antibody, human IgG2)
heavy: QVQLVQSGAEVKKPGASVKVSCKASGYTFTNHYMHWVRQAPGQGLEWMGIINPISGSTSNAQKFQGRVTMTRDTSTSTVYMELSSLRSEDTAVYYCARDIVDAFDFWGQGTMVTVSSASTKGPSVFPLAPCSRSTSESTAALGCLVKDYFPEPVTVSWNSGALTSGVHTFPAVLQSSGLYSLSSVVTVPSSNFGTQTYTCNVDHKPSNTKVDKTVERKCCVECPPCPAPPVAGPSVFLFPPKPKDTLMISRTPEVTCVVVDVSHEDPEVQFNWYVDGVEVHNAKTKPREEQFNSTFRVVSVLTVVHQDWLNGKEYKCKVSNKGLPAPIEKTISKTKGQPREPQVYTLPPSREEMTKNQVSLTCLVKGFYPSDIAVEWESNGQPENNYKTTPPMLDSDGSFFLYSKLTVDKSRWQQGNVFSCSVMHEALHNHYTQKSLSLSPGK
light: B1 VL
notes: domain: CH; CH of antibody A replaced by a CH of human IgG2; also called A2_G2; not shown: human kappa chain constant region; copies: 2 + 2
B21: antibody A_G2_A (antibody, human IgG2, name in EU numbering)
heavy: B20 heavy with A374S, N430A
light: B1 VL
notes: domain: CH; Human IgG2 CH with modification (10-3), EU index; not shown: human kappa chain constant region; copies: 2 + 2
B22: antibody A_G2_P (antibody, human IgG2, name in EU numbering)
heavy: B20 heavy with V304P, A374S
light: B1 VL
notes: domain: CH; Human IgG2 CH with modification (10-4), EU index; not shown: human kappa chain constant region; copies: 2 + 2
B23: antibody A_G2_YTE (antibody)
heavy: B20 heavy with M248Y, S250T, T252E
light: B1 VL
notes: as for B17
B24: antibody A_G2AAAS_A (antibody)
chain 1: B20 heavy with V231A, G233A, P327S, A374S, N430A
chain 2: not shown
B25: antibody A_G2AAAS_QL (antibody)
chain 1: B20 heavy with V231A, G233A, T246Q, P327S, A374S, M424L
chain 2: not shown

Biological target: T1, Recombinant Human FGF-23 (R&D Systems, Cat No. 2604-FG-025/CF) (human, UniProt Q9GZV9 25-251)
T1 construct: Bought protein
T1 sequence (looked up): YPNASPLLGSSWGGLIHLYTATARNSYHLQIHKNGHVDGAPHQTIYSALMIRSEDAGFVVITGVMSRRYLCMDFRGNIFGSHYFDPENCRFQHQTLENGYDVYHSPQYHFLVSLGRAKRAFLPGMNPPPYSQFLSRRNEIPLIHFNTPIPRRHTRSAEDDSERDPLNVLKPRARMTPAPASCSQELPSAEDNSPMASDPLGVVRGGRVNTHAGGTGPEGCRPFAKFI
Assay: SPR, antibody captured by anti-human IgG, FGF-23 analyte

| Binder | Kd |
| --- | --- |
| B1 | 0.017 nM |
| B2 | 0.178 nM |
| B3 | 0.0975 nM |
| B4 | 0.143 nM |
| B5 | 0.0734 nM |
| B6 | 0.262 nM |
| B7 | 0.0639 nM |
| B8 | 0.671 nM |
| B9 | 0.046 nM |
| B10 | 0.201 nM |
| B11 | 0.252 nM |
| B12 | 1.91 nM |
| B13 | 0.106 nM |
| B14 | 0.263 nM |
| B15 | 0.149 nM |
| B16 | 0.102 nM |

Biological target: T1, Recombinant Human FGF-23 (R&D Systems, …)
Assay: cell-based or functional assay

| Binder | FGF23 neutralizing activity IC50 (luciferase promoter assay) |
| --- | --- |
| B2 | > 0.1 µg/mL |
| B3 | 0.0331 µg/mL |
| B4 | 0.0467 µg/mL |
| B5 | 0.0237 µg/mL |
| B6 | 0.0457 µg/mL |
| B7 | 0.0256 µg/mL |
| B8 | > 0.1 µg/mL |
| B9 | 0.014 µg/mL |
| B10 | 0.0992 µg/mL |
| B11 | > 0.1 µg/mL |
| B12 | > 0.1 µg/mL |
| B13 | 0.0278 µg/mL |
| B14 | > 0.1 µg/mL |
| B15 | 0.0779 µg/mL |
| B16 | 0.0216 µg/mL |

Biological target: T2, human FcRn (human FcRn-His tag with human β2 microglobulin) (human, UniProt P55899 24-297; P61769 21-119)
T2 construct: also called h FcRn; hFcRn
Assay: SPR pH 6, FcRn-His captured by anti-His, antibody analyte

T2 sequence (P55899 other isoform, or with tags, fused parts or gaps limits assumed, chain 1 of 2): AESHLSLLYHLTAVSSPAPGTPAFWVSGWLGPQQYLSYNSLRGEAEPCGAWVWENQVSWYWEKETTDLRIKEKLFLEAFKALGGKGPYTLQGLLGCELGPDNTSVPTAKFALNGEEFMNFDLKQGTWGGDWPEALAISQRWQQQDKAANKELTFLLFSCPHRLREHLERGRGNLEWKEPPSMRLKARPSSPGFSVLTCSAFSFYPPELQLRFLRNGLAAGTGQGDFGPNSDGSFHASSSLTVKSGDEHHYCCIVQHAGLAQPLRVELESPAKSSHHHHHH
T2 sequence (P61769 21-119 limits assumed, chain 2 of 2): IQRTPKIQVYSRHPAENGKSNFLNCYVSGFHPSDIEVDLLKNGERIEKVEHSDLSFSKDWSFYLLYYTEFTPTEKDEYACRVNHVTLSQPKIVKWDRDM

| Binder | Kd |
| --- | --- |
| B17 | 308 nM |
| B18 | 183 nM |
| B19 | 159 nM |
| B20 | 624 nM |
| B21 | 286 nM |
| B22 | 234 nM |
| B23 | 186 nM |
| B24 | 247 nM |
| B25 | 213 nM |

Biological target: T3, monkey FcRn (monkey FcRn-His tag with monkey β2 microglobulin) (cynomolgus monkey, UniProt Q8SPV9 24-297; Q8SPW0 21-119)
T3 construct: also called cyno FcRn; cynomolgus monkey FcRn extracellular domain His-tag body
Assay: as above

T3 sequence (Q8SPV9 other isoform, or with tags, fused parts or gaps limits assumed, chain 1 of 2): as the sequence (P55899 other isoform, or with tags, fused parts or gaps limits assumed, chain 1 of 2) above, with N39D, E44Q, G99S, S189G, S190N, L217M, S269T counted along it
T3 sequence (Q8SPW0 21-119 limits assumed, chain 2 of 2): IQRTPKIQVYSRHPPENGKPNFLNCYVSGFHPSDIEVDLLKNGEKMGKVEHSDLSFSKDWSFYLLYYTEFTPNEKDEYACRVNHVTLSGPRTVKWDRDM

| Binder | Kd |
| --- | --- |
| B17 | 155 nM |
| B18 | 60.2 nM |
| B19 | 115 nM |
| B20 | 233 nM |
| B21 | 133 nM |
| B22 | 78.2 nM |
| B23 | 39.1 nM |
| B24 | 129 nM |
| B25 | 69 nM |
